Measurements: article doi:10.1101/2021.12.02.470928 (2021)

B1: PNUTS(1-148), PNUTS amino-terminal domain (PAD) (domain or fragment)
chain: MGSGPIDPKELLKGLDSFLNRDGEVKSVDGISKIFSLMKEARKMVSRCTYLNILLQTRSPEILVKFIDVGGYKLLNNWLTYSKTTNNIPLLQQILLTLQHLPLTVDHLKQNNTAKLVKQLSKSSEDEELRKLASVLVSDWMAVIRSQS

Legend:
Assay in all cases: BLI
[1] = biological target: B1
MYC(1-88)-V19A = biological target: MYC(1-88)-V19A
MYC(1-88)-Q20A = biological target: MYC(1-88)-Q20A
MYC(1-88 V19A) = biological target: MYC(1-88 V19A)
MYC(1-88 Q20A) = biological target: MYC(1-88 Q20A)

Binder	Kd [1]	also measured
biotinylated MYC(1-88 F23A) (domain or fragment, biotin on the C-terminal AVI tag) MPLNVSFTNRNYDLDYDSVQPYAYCDEEENFYQQQQQSELQPPAPSEDIWKKFELLPTPPLSPSRRSGLCSPSYVAVTPFSLRGDNDG	19 µM	
biotinylated MYC(1-88 Y22A) (domain or fragment, biotin on the C-terminal AVI tag) MPLNVSFTNRNYDLDYDSVQPAFYCDEEENFYQQQQQSELQPPAPSEDIWKKFELLPTPPLSPSRRSGLCSPSYVAVTPFSLRGDNDG	24 µM	
biotinylated MYC(1-88 Y24A) (domain or fragment, biotin on the C-terminal AVI tag) MPLNVSFTNRNYDLDYDSVQPYFACDEEENFYQQQQQSELQPPAPSEDIWKKFELLPTPPLSPSRRSGLCSPSYVAVTPFSLRGDNDG	37 µM	
biotinylated MYC(1-88 P21A) (domain or fragment, biotin on the C-terminal AVI tag) MPLNVSFTNRNYDLDYDSVQAYFYCDEEENFYQQQQQSELQPPAPSEDIWKKFELLPTPPLSPSRRSGLCSPSYVAVTPFSLRGDNDG	19 µM	
B1		Kd (MYC(1-88)-V19A): 8.4 µM; Kd (MYC(1-88)-Q20A): 5.3 µM; Kd (MYC(1-88 V19A)): 8.4 µM; Kd (MYC(1-88 Q20A)): 5.3 µM
